Results: the RNAGym collection of RNA variant scans (doi:10.1101/gr.219683.116)

B1: mRNA-splicing (parent)
chain: AGUUGCUGCUGGGAGCUCCAGCACAGUGAAAUGGACAGAAGGGCAGAGCAA

Variants of: B1
Assay: exon inclusion enrichment index; higher = more inclusion; WT1 exon 5 minigene, HEK293

In order of rising “exon inclusion enrichment index” value:
1. G5U G8U C9U G12A G13U  0.000463
2. G5U G8U C9U C18A C19U  0.0019
3. G5U G8U C9U A39G A40U  0.00232
4. G5U G8U C9U G38A A39U  0.00274
5. G5U G8U C9U G13U  0.00294
6. G5U G8U C9U G38C A39U  0.00329
7. G5U G8U C9U C18A C19A  0.00397
8. G5U G8U C9U C18A C19G  0.00406
9. G5U G8U C9U C19A A20G  0.00554
10. G5U G8U C9U A39G A40G  0.00566
11. G5U G8U C9U C16G U17G  0.00571
12. G5U G8U C9U G33A  0.00649
13. G5U G8U C9U G33U G34U  0.00702
14. G5U G8U C9U G33U G34A  0.00858
15. G5U G8U C9U C16U U17G  0.0101
16. G5U G8U C9U G13C  0.0102
17. G5U G8U C9U G12A G13C  0.0118
18. G5U G8U C9U G12A G13A  0.0133
19. G5U G8U C9U C19A A20U  0.0164
20. G5U G8U C9U G33U G34C  0.0164
21. G5U G8U C9U G34C  0.0201
22. G5U G8U C9U G38U  0.0205
23. G5U G8U C9U A29G A30U  0.0242
24. G5U G8U C9U G15U C16U  0.0287
25. G5U G8U C9U C36U  0.0293
26. G5U G8U C9U C36G A37G  0.0302
27. G5U G8U C9U C16G U17C  0.0319
28. G5U G8U C9U C36G A37C  0.0336
29. G5U G8U C9U G15U C16A  0.0344
30. G5U G8U C9U G34U  0.0349
31. G5U G8U C9U A29G A30C  0.035
32. G5U G8U C9U C19A A20C  0.0372
33. G5U G8U C9U A29G A30G  0.0374
34. G5U G8U C9U C16U U17C  0.0384
35. G5U G8U C9U C16A U17G  0.0387
36. G5U G8U C9U G38A  0.0418
37. G5U G8U C9U G41U G42A  0.0453
38. G5U G8U C9U C36G A37U  0.0469
39. G5U G8U C9U C16U U17A  0.0519
40. G5U G8U C9U A30U  0.0559
41. G5U G8U C9U A45C G46A  0.056
42. G5U G8U C9U G34A  0.0562
43. G5U G8U C9U A45C G46U  0.0571
44. G5U G8U C9U G15U C16G  0.064
45. G5U G8U C9U A47U G48C  0.0643
46. G5U G8U C9U G33U  0.0674
47. G5U G8U C9U C36G  0.0708
48. G5U G8U C9U G21A  0.0718
49. G5U G8U C9U G38A A39C  0.0724
50. G5U G8U C9U A47U G48A  0.0727
51. G5U G8U C9U G38C  0.0741
52. G5U G8U C9U G41A  0.0762
53. G5U G8U C9U G13A  0.0771
54. G5U G8U C9U G21U  0.078
55. G5U G8U C9U C16A U17C  0.0818
56. G5U G8U C9U A45C G46C  0.0849
57. G5U G8U C9U G15C C16U  0.0902
58. G5U G8U C9U G15C C16A  0.0947
59. G5U G8U C9U C36A  0.0987
60. G5U G8U C9U C16A U17A  0.0994
61. G5U G8U C9U A30G  0.109
62. G5U G8U C9U G41U G42U  0.11
63. G5U G8U C9U C16G U17A  0.115
64. G5U G8U C9U A39G A40C  0.128
65. G5U G8U C9U G26C U27A  0.135
66. G5U G8U C9U G38C A39G  0.136
67. G5U G8U C9U A47U G48U  0.143
68. G5U G8U C9U A31U  0.15
69. G5U G8U C9U G38A A39G  0.151
70. G5U G8U C9U G38C A39C  0.152
71. G5U G8U C9U G21C  0.162
72. G5U G8U C9U G41U  0.17
73. G5U G8U C9U A30C  0.172
74. G5U G8U C9U G15C C16G  0.179
75. G5U G8U C9U A31G  0.187
76. G5U G8U C9U A31C U32G  0.188
77. G5U G8U C9U A31C  0.202
78. G5U G8U C9U G33C  0.254
79. G5U G8U C9U G41U G42C  0.47
80. G5U G8U C9U A31C U32C  0.544
81. G5U G8U C9U G26C U27C  0.621
82. G5U G8U C9U G26C U27G  0.648
83. G5U G8U C9U G41C  0.706
